Data reported in the supplement of paper PMC6755084.

B1: minF1; a variant is named by its letters at N, in order (parent)
chain: GAGACCGCAACTGAAAAGTTGTTNNNNAANNNNGGNTNNATTTCTGCACGTAGAAGCAAAAGGC

Variants of: B1
Experiment: fraction ligated after 30 min (ligated reads / total reads); higher = more ligase activity
Details: with F1*subA RNA substrate (template-directed ligation), 42 °C
Experimental: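 Chip-synthesised pool of minF1 ligase ribozyme variants (single and double substitutions, single to quadruple deletions, bulge and P2 designed variants) was transcribed with T7 and reacted as a pool with excess substrate F1*subA for 30 min at 42 C in 50 mM EPPS pH 8.5, 25 mM MgCl2. Ligated and unligated RNAs were separated by PAGE, barcoded by RT and deep sequenced; fraction ligated = ligated reads / total reads, relative activity = FL / FL of wild-type minF1 (0.76); sequencing FL correlated with PAGE (R2 = 0.98). Sequences are the DNA template of the ribozyme.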

Variant	fraction ligated
GAGACCGCAACTGAAAAGTTGTATCAGAAAGAGGGTTGAATTTCTGCACGTAGAAGCAAAAGGC [TCAGAGAGTGA T23A]	0.0017
GAGACCGCAACTGAAAAGTTGTTTCAAAATGATGGTTGAATTTCTGCACGTAGAAGCAAAAGGC [TCAATGATTGA]	0.00117
GAGACCGCAACTGAAAAGTTGTTTCAAAATGATGGGTTAATTTCTGCACGTAGAAGCAAAAGGC [TCAATGATGTA]	0.00254
GAGACCGCAACTGAAAAGTTGTTTCAAAATGATGGGTTGATTTCTGCACGTAGAAGCAAAAGGC [TCAATGATGTG]	0.0049
GAGACCGCAACTGAAAAGTTGTATCAGAAAGATGGGTTGATTTCTGCACGTAGAAGCAAAAGGC [TCAGAGATGTG T23A]	0.00606
GAGACCGCAACTGAAAAGTTGTTACAAAATGGATGGTTAATTTCTGCACGTAGAAGCAAAAGGC [ACAATGGAGTA G34T]	0.0117
GAGACCGCAACTGAAAAGTTGTATCAAAATGATGGGTTGATTTCTGCACGTAGAAGCAAAAGGC [TCAATGATGTG T23A]	0.00503
GAGACCGCAACTGAAAAGTTGTATCAAAAGGATGGGTTAATTTCTGCACGTAGAAGCAAAAGGC [TCAAGGATGTA T23A]	0.000851
GAGACCGCAACTGAAAAGTTGTTACAAATGGTGGGTTGAATTTCTGCACGTAGAAGCAAAAGGC [ACAAGGTGTGA A29T]	0.00256
GAGACCGCAACTGAAAAGTTGTATCAAAATGGATGGTTGATTTCTGCACGTAGAAGCAAAAGGC [TCAATGGAGTG T23A G34T]	0.0342
GAGACCGCAACTGAAAAGTTGTTTCAAAATGAGGGTTGAATTTCTGCACGTAGAAGCAAAAGGC [TCAATGAGTGA]	0.0012
GAGACCGCAACTGAAAAGTTGTTACAAAATGATGGTTGAATTTCTGCACGTAGAAGCAAAAGGC [ACAATGATTGA]	0.00348
GAGACCGCAACTGAAAAGTTGTTACAAAATGGATGGGTTATTTCTGCACGTAGAAGCAAAAGGC [ACAATGGAGTT G34T T37G]	0.00166
GAGACCGCAACTGAAAAGTTGTTACAAAATGGTGGTTGAATTTCTGCACGTAGAAGCAAAAGGC [ACAATGGTTGA]	0.00142
GAGACCGCAACTGAAAAGTTGTTTCAAAATGGAGGGTTGATTTCTGCACGTAGAAGCAAAAGGC [TCAATGGAGTG]	0.00581
GAGACCGCAACTGAAAAGTTGTTTCAAAATGGAGGGTTAATTTCTGCACGTAGAAGCAAAAGGC [TCAATGGAGTA]	0.00279
GAGACCGCAACTGAAAAGTTGTTACAGAAAGAGGGTTGAATTTCTGCACGTAGAAGCAAAAGGC [ACAGAGAGTGA]	0.00105
GAGACCGCAACTGAAAAGTTGTTTCAAAATGGTGGGTTAATTTCTGCACGTAGAAGCAAAAGGC [TCAATGGTGTA]	0.00227
GAGACCGCAACTGAAAAGTTGTTTCAAAATGGTGGGTTGATTTCTGCACGTAGAAGCAAAAGGC [TCAATGGTGTG]	0.00437
GAGACCGCAACTGAAAAGTTGTTTCAGAAAGATGGTTGAATTTCTGCACGTAGAAGCAAAAGGC [TCAGAGATTGA]	0.00355
GAGACCGCAACTGAAAAGTTGTTACAAAATGGTGGGTTAATTTCTGCACGTAGAAGCAAAAGGC [ACAATGGTGTA]	0.00264

Variant	fraction ligated
GAGACCGCAACTGAAAAGTTGTTACAAAATGGTGGGTTGATTTCTGCACGTAGAAGCAAAAGGC [ACAATGGTGTG]	0.00545
GAGACCGCAACTGAAAAGTTGTATCAAAATATGGGTTGAATTTCTGCACGTAGAAGCAAAAGGC [TCAATATGTGA T23A]	0.00157
GAGACCGCAACTGAAAAGTTGTTTCAAAATATGGGTTGAATTTCTGCACGTAGAAGCAAAAGGC [TCAATATGTGA]	0.00184
GAGACCGCAACTGAAAAGTTGTTACAAAAGGTGGGTTGAATTTCTGCACGTAGAAGCAAAAGGC [ACAAGGTGTGA]	0.00367
GAGACCGCAACTGAAAAGTTGTTTCAAAAGGATGGGTTGATTTCTGCACGTAGAAGCAAAAGGC [TCAAGGATGTG]	0.00569
GAGACCGCAACTGAAAAGTTGTTTCAAAAGGTGGGTTGAATTTCTGCACGTAGAAGCAAAAGGC [TCAAGGTGTGA]	0.00226
GAGACCGCAACTGAAAAGTTGTATCAGAAAATGGGTTGAATTTCTGCACGTAGAAGCAAAAGGC [TCAGAATGTGA T23A]	0.00396
GAGACCGCAACTGAAAAGTTGTATCAAAATGGTGGTTGAATTTCTGCACGTAGAAGCAAAAGGC [TCAATGGTTGA T23A]	0.00285
GAGACCGCAACTGAAAAGTTGTTACAAAATGAGGGTTGAATTTCTGCACGTAGAAGCAAAAGGC [ACAATGAGTGA]	0.000748
GAGACCGCAACTGAAAAGTTGTATCAAAATGATGGGTTAATTTCTGCACGTAGAAGCAAAAGGC [TCAATGATGTA T23A]	0.00393
GAGACCGCAACTGAAAAGTTGTTACAAAATGTGGGTTGAATTTCTGCACGTAGAAGCAAAAGGC [ACAATGTGTGA]	0.00146
GAGACCGCAACTGAAAAGTTGTTTCAAATGGATGGTTGAATTTCTGCACGTAGAAGCAAAAGGC [TCAAGGATTGA A29T]	0.00468
GAGACCGCAACTGAAAAGTTGTATCAAAATGGAGGGTTAATTTCTGCACGTAGAAGCAAAAGGC [TCAATGGAGTA T23A]	0.00206
GAGACCGCAACTGAAAAGTTGTTACAAATGGATGGTTGAATTTCTGCACGTAGAAGCAAAAGGC [ACAAGGATTGA A29T]	0.00464
GAGACCGCAACTGAAAAGTTGTTTCAGAAAGAGGGTTGAATTTCTGCACGTAGAAGCAAAAGGC [TCAGAGAGTGA]	0.00182
GAGACCGCAACTGAAAAGTTGTTACAAAATGGAGGGTTGATTTCTGCACGTAGAAGCAAAAGGC [ACAATGGAGTG]	0.00309
GAGACCGCAACTGAAAAGTTGTTACAAAATGGAGGGTTAATTTCTGCACGTAGAAGCAAAAGGC [ACAATGGAGTA]	0.00362
GAGACCGCAACTGAAAAGTTGTTTCAAAATGGATGGGTTATTTCTGCACGTAGAAGCAAAAGGC [TCAATGGAGTT G34T T37G]	0.00235
GAGACCGCAACTGAAAAGTTGTATCAAAATGGTGGGTTGATTTCTGCACGTAGAAGCAAAAGGC [TCAATGGTGTG T23A]	0.00466
GAGACCGCAACTGAAAAGTTGTTACAGAAAGATGGGTTGATTTCTGCACGTAGAAGCAAAAGGC [ACAGAGATGTG]	0.00764
GAGACCGCAACTGAAAAGTTGTTACAGAAAGATGGGTTAATTTCTGCACGTAGAAGCAAAAGGC [ACAGAGATGTA]	0.00268
